PMC7952403 (Nature Communications, 2021)

Target: SARS-CoV-2 RBD-SD1, HEK cell produced (SPR) (Severe acute respiratory syndrome …, UniProt P0DTC2)
Test: SPR
Details: both partners purified

B1: STE73-2E9 IgG (antibody, V domains shown)
VH: QVQLVQSGAEVKKPGASVKVSCKASGYTFTSYGISWVRQAPGQGLEWMGWISAYNGNTNYAQKLQGRVTMTTDTSTSTAYMELRSLRSDDTAVYYCARGKFDYWGQGTLVTVSS
VL: QSVLTQPPSVSEAPSQRVTISCSGSSSNIGNNAVNWYQQLPGKAPKLLIYYDDVLPSGVSDRFSGSKSGTSASLAISGLQSGDEADYYCAAWDDSLSGVVFGGGTKLTVL
notes: source: Expi293F, transfected, purified (Protein A); copies: 2 + 2
B1 was tested, and the Kd was 2 nM.
